In experiment [1] the target is GST-fused PPC2 domain of metalloprotease E495 (Pseudoalteromonas sp. SM495). The experiment in a line: pull-down; GST-fused PPC domain (or mutant) attached to glutathione-agarose resin; 0.1 mg/ml CPC or casein added, 4°C, 12 h with shaking; substrate remaining in the supernatant analysed by 12.5% SDS-PAGE and ImageJ.
In experiment [2] the target is GST-fused PPC12 (PPC1 and PPC2 domains) of metalloprotease E495 (Pseudoalteromonas sp. SM495). The description is as above.
Experiment [3] addresses GST-fused PPC1 domain of metalloprotease E495 (Pseudoalteromonas sp. SM495). The experiment is described as above.
For experiment [4], the target named is alpha casein.
The target in experiment [5] is C-phycocyanin (Synechocystis sp. strain PCC6803) (UniProt Q54715). The experiment in a line: SPR; BIACORE 3000, 25°C; CPC amine-coupled on a CM5 chip; PPC domains 0.25-8 µM at 30 µl/min; regeneration with 20 mM NaOH; global fits, BIAevaluation 4.1. For orientation: Surface plasmon resonance follows binding to a sensor surface in real time, without labels.

Data on six substances can be found in article PMC3327674, “Structural and Functional Characterization of Mature Forms of Metalloprotease E495 from Arctic Sea-Ice Bacterium Pseudoalteromonas sp. SM495” (PLoS ONE, 2012).

C-phycocyanin (Synechocystis sp. strain PCC6803), sequence (Q54715 whole entry, chain 1 of 2, other chains not shown, the tested form may be a part): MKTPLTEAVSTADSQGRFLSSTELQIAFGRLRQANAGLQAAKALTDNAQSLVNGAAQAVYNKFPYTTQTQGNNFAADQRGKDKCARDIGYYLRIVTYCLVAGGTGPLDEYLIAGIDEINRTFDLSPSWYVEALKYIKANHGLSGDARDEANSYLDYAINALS

For the substance “C-phycocyanin (from UniProt Q54715 1-162; Q54714 1-172) (complex)”, the percent bound in experiment [1], in experiment [2] and in experiment [3] was 30% each time.
In turn, “E495-M (mature form of metalloprotease E495 containing only the catalytic domain) (enzyme)” showed a K m of α-casein hydrolysis at 50°C (non-linear fit, Michaelis-Menten) in experiment [4] of 67 µM.
The same measure, in the same setting: then “E495-M-C1 (mature form of metalloprotease E495 containing the catalytic domain and the PPC1 domain) (enzyme)”, with 18 µM.
The Kd is the free concentration of one partner at which half of the binding sites on the other are occupied at equilibrium, for simple one-to-one binding. As a reminder, the koff is the rate constant with which the complex falls apart. In general, kon refers to a measure of how fast the partners come together. In experiment [5], “GST-fused PPC1 domain of metalloprotease E495 (domain or fragment)” showed a dissociation constant Kd of 770 nM, a koff of 0.0158 s⁻¹ and an on-rate (kon) of 20400 M⁻¹ s⁻¹.
As for “GST-fused PPC2 domain of metalloprotease E495 (domain or fragment)”, in experiment [5], the dissociation constant Kd came out at 2470 nM, the koff was 0.0162 s⁻¹ and the association rate constant (kon) is 6560 M⁻¹ s⁻¹.
As to alpha casein (natural protein), the percent bound in experiment [1], in experiment [2] and in experiment [3] was 30% in each case.
